Measured values: patent US12331106B2, “Anti-angiopoietin-2 antibodies that induce Tie2 activation” (Institute for Basic Science, priority 2018, dated 2025)
Substitutions are numbered along the chain they refer to.

B1: 4B9H21: humanized anti-Ang2 human IgG1 antibody from mouse 4B9; VH SEQ ID NO: 47, VL SEQ ID NO: 48 (antibody, V domains shown)
VH: QVQLVESGGGLVKPGGSLRLSCAASGFTFSDYYMYWVRQAPGKGLEWVSTISVGGSFTYYPDSVKGRFTISRDNAKNSLYLQMNSLRAEDTAVYYCARDWGLRPWFVYWGQGTLVTVSS
VL: DIQMTQSPSSLSASVGDRVTITCKASQDVSTAVAWYQQKPGKAPKLLIYWASTRHTGVPSRFSGSGSGTDFTLTISSLQPEDFATYYCQQHYSTPPTFGQGTKVEIK
modifications: human IgG1 constant regions; VH; VL
B2: 4B9H31: humanized anti-Ang2 human IgG1 antibody from mouse 4B9; VH SEQ ID NO: 51, VL SEQ ID NO: 52 (antibody, V domains shown)
VH: B1 VH with S49A
VL: B1 VL
modifications: human IgG1 constant regions; VH; VL
B3: 2F10: mouse monoclonal anti-Ang2 antibody; VH SEQ ID NO: 29, VL SEQ ID NO: 31 (antibody, V domains shown)
VH: QVQLVESGGGLVKPGGSLKLSCAASGFTFSDYYMYWIRQTPEKRLEWVATINDGGSYTYYPDSVKGRFTISRDNAKNNLYLQMSSLKSEDTAMYYCARDWGLRPWFVYWGQGTLVTVSA
VL: DIVMTQSHKFMSTSVGDRVSITCKASQDVSTAVAWYQQKPGQSPKLLIYWASTRHTGVPDRFTGSGSGTDYTLTISSVQAEDLALYYCQQHYTTPPTFGSGTKLEIK
modifications: Heavy Chain Variable Region; Light Chain Variable Region
B4: 4E2: mouse monoclonal anti-Ang2 antibody; VH SEQ ID NO: 39, VL SEQ ID NO: 41 (antibody, V domains shown)
VH: EVQLQQSGPELEKPGASVKISCKASGYSFTGYNMNWVKQSNGKSLEWIGNIDPYYGGTSYNQKFKGKATLTVDKSSSTAYMQLKSLTSEDSAVYYCVRYGNYVDYWGQGTTLTVSS
VL: B3 VL with T93N
modifications: Heavy Chain Variable Region; Light Chain Variable Region

Legend:
[1] = system: choroidal neovascularization (CNV); experiment: Laser-induced CNV model, intravitreal injection: CNV regression and vascular leakage; type: in vivo, mice; conditions: 5 μg intravitreal at 7 days
Procedure: 2C8H11 antibody was tested for its ability to inhibit choroidal neovascularization (CNV), the hallmark of wet age-related macular degeneration (AMD) using laser-induced CNV model. After dilation of pupils with 5 mg/ml phenylephrine and 5 mg/ml tropicamide eye drops (Santen Pharmaceutical) and instillation of 0.5% proparacaine hydrochloride eye drops (Alcon) for topical anesthesia, laser photocoagulator (Lumenis Inc.) with a slit lamp delivery system was used with a glass coverslip as a contact lens to visualize the retina. Sufficient laser energy (532 nm wavelength, 250 mW power, 100 ms duration, 50 μm spot size) was delivered in 4 locations for each eye (the 3, 6, 9 and 12 o'clock positions of the posterior pole). Only burns that produced a bubble at the time of laser photocoagulation, indicating the rupture of the Bruch's membrane, were included in this study. Spots containing hemorrhage at the laser site were excluded from the analysis. To recapitulate a clinical situation, 2C8H11 (5 μg) was administered intravitreally to the mice at 7 days after laser photocoagulation (FIG. 13A). As a control or as for comparison, Fc or VEGF-Trap (5 μg each) was administered in the same manner to the mice. To intravitreally administer indicated reagents, ˜1 μl (5 mg/ml) containing 5 μg of each reagent was injected into the vitreal cavity using the Nanoliter 2000 micro-injector (World Precision Instruments) fitted with a glass capillary pipette. CD31+CNV volumes of the retinal pigment epithelium (RPE)-choroid-sclera flat mounts were calculated using the MATLAB® Image Processing Toolbox™ (Math Works, a comprehensive set of reference-standard algorithms and workflow apps for image processing, analysis, visualization, and algorithm development) at 14 days after laser photocoagulation. Anti-CD31 antibody (1:200, Millipore®) was used for the detection of endothelial cells of CNV. […] Combined fluorescein angiography (FA) and indocyanine green angiography (ICGA) enabled us to measure vascular leakage at the neovessels around the laser injury site. Continuous-wave laser modules at 488 nm and 785 nm were used as excitation sources for fluorescein and ICG, respectively. A raster scanning pattern of excitation lasers was achieved by a scanner system consisting of a rotating polygonal mirror (MC-5; Lincoln Laser) and a galvanometer-based scanning mirror (6230H; Cambridge technology), and delivered to the back aperture of an imaging lens. A high numerical aperture (NA) objective lens (PlanApo λ, NA 0.75; Nikon) was used as the imaging lens to provide wide-field fundus fluorescence images. Fluorescence signals detected by photomultiplier tubes (R9110; Hamamatsu Photonics) were digitized by frame grabber and reconstructed to images with size of 512×512 pixels per frame in real time. To visualize late-phase (6 min) FA and ICGA images utilizing the angiography system, 10 mg of fluorescein sodium (Alcon) and 0.15 mg of ICG (Daiichi Pharmaceutical) were administered intraperitoneally and intravenously, respectively. The imaging procedure was performed under systemic anesthesia and pupil dilation to improve the quality of images. Leaky areas from CNV were calculated as the total measured hyperfluorescent areas in FA images divided by the total measured CNV areas in ICGA images using a Java-based imaging software (ImajeJ; National Institutes of Health). […] Thus, the magnitude of the suppression of CNV and vascular leakage was quantitatively indistinguishable between VEGF-Trap and 2C8H11 in the mouse model of laser-induced CNV.

[2] = system: choroidal neovascularization (CNV) / choriocapillaris; experiment: Laser-induced CNV model, OCTA: CNV volume and choriocapillary regeneration (avascular space); type: in vivo, mice; conditions: for increased avascular space: 5 μg intravitreal at 7 days
Procedure: To determine the effect of 2C8H11 in CNV regression and choriocapillary regeneration after establishment of CNV, Fc, VEGF-Trap, control antibody or 2C8H11 (5 μg each) was given intravitreally to the mice by the Nanoliter 2000 micro-injector (World Precision Instruments) at 7 days after laser photocoagulation. Intra-vital optical coherence tomography angiography (OCTA) was performed at 6, 14, 21, and 35 days after laser photocoagulation (FIG. 14A). The retinochoroidal layers were imaged using a prototype high-speed swept-source optical coherence tomography (OCT) system, utilizing a custom ring cavity wavelength-swept laser centered at 1048 nm with an A-scan rate of 230 kHz. OCT images were collected in a 1.7 mm×1.7 mm field of view within the retino-choroidal layer to monitor regeneration of choroidal vasculatures at the site of laser photocoagulation after intravitreal injection of reagents. […] Then, by using automatic layer flattening and segmentation algorithms, cross-sectional OCT angiograms were flattened to RPE, and en face OCT angiograms were generated by separate projection of each flattened cross-sectional OCT angiogram in three depth ranges: inner retinal, outer retinal and choroidal layers. The outer plexiform layer and Bruch's membrane were defined as the boundaries separating inner retinal, outer retinal, and choroidal layers. The density of retina and choroid vessel was automatically calculated as the proportion of measured area occupied by flowing blood vessels defined as pixels having decorrelation values above the threshold level. Avascular pixels were detected from the en face OCT angiogram representing choroidal layer by means of the image processing toolbox of MATLAB® (Math Works). Then the total volume of the avascular space surrounding the laser injury site was calculated by summing the number of avascular pixels multiplied by the volume of one pixel. In order to analyze the changing complexion of avascular space volume, serially measured values in each eye were transformed into percentage change from baseline value. […] Overall, these findings indicate that both 2C8H11 and […] promotes regeneration of the choriocapillaris, while VEGF-Trap leads to choriocapillary regression in the laser-induced CNV model.

[3] = target: T1, hAng2 (Homo sapiens, UniProt O15123); experiment: OCTET affinity of humanized anti-Ang2 antibodies against hAng2; type: binding; conditions: humanized 4B9 antibodies (IgG1) fixed on AR2G biosensor; hAng2 50-0 nM
T1 sequence (O15123 19-496): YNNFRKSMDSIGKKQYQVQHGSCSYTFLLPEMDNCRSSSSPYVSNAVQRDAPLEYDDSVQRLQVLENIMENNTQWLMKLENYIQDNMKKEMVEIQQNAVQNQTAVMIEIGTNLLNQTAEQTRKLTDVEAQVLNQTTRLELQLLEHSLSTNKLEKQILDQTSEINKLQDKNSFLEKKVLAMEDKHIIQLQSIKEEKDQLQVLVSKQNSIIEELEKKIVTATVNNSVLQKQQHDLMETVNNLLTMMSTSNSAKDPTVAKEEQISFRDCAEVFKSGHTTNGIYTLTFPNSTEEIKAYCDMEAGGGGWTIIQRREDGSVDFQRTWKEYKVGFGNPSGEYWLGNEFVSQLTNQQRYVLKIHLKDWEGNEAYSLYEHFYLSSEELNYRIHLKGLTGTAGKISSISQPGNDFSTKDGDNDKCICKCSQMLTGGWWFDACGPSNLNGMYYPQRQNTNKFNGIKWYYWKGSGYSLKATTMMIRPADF

[4] = system: downstream signaling of the Tie2 receptor (Akt phosphorylation) in HUVECs; experiment: Akt phosphorylation in HUVECs by mouse anti-Ang2 antibodies plus hAng2 (immunoblot); type: cell-based, human; conditions: serum-starved HUVECs; antibody combined with hAng2 1 μg/ml; 30 min
Procedure: To investigate whether the mouse anti-Ang2 antibodies induce the downstream signaling of the Tie2 receptor in endothelial cells, HUVECs (LONZA™) were treated with a combination of hAng2 protein and anti-Ang2 antibody, and then the level of Akt phosphorylation, the main downstream signaling protein of Tie2 receptor, was analyzed by immunoblotting. As a negative control group, the full-length hAng2 (R&D® Systems) alone was treated into the cells.
Specifically, HUVECs (1×10^5 cells/ml) were cultured in EGM-2 medium (LONZA™) at 37° C. in a 60 mm culture dish. Cells (90% confluency) were incubated with serum-free EBM-2 medium for 4 hrs for serum starvation. The serum-starved HUVECs were treated with a mixture of anti-Ang2 antibody and hAng2 protein (1 μg/ml, R&D® Systems) and further incubated for 30 min. The cells were washed with cold PBS, treated with lysis buffer, and lysed at 4° C. for 20 min. Then, the cell lysates were prepared by centrifugation at 13000 rpm for 15 min. 5× SDS sample buffer was added to the cell lysate and the cell lysate was boiled at 95° C. for 5 min. Then, the cell lysate was subjected to SDS PAGE and proteins were transferred to a nitrocellulose membrane (GE).
To investigate Akt phosphorylation, the blot was blocked with 5% skim milk-containing TBS-T for 1 hr at room temperature (RT), and incubated with anti-phospho-Akt antibody (S473) at 4° C. for about 8 hrs. The amount of phospho-Akt was visualized by an enhanced chemiluminescence (ECL). Then, the membrane was incubated in a stripping buffer (Thermo) for 15 min, and then reprobed with an anti-Akt antibody to determine the amount of total Akt.

[5] = target: T1, hAng2; experiment: OCTET affinity of mouse monoclonal anti-Ang2 antibodies against hAng2; conditions: hAng2 fixed on AR2G biosensor, 1:1 binding model
Procedure: The affinity of mouse monoclonal antibody against hAng2 was measured using OCTET® system (ForteBio, real-time, label-free bio-layer interferometry system for determination of affinity, kinetics, and concentration). Specifically, buffer and samples were measured in total 200 μl/well using Black 96-well plates (96 well F-type black plates, Greiner). The biosensor used for affinity measurements was hydrated for 10 min before measurement with AR2G tip (ForteBio OCTET®). After the hydration, hAng2 was diluted in 10 mM sodium acetate, pH 6.0 buffer at a concentration of 10 μg/ml, fixed on AR2G biosensor, and blocked with 1M ethanolamine. The mouse monoclonal anti-Ang2 antibodies were diluted to 50, 25, 12.5, 6.25, 3.125, and 0 nM with 1× kinetic buffer, and subjected to association for 300 seconds and dissociation for 900 seconds. For affinity measurement (KD), the association rate (K-on) and dissociation rate (K-off) were analyzed by binding curve (global) and fitted to 1:1 binding model using OCTET® data analysis v9.0.0.10 program.

Row | Molecule | Kdis [3] [s⁻¹] | Kon [3] [M⁻¹ s⁻¹] | Akt phosphorylation at S473 [4] | Koff [5] [s⁻¹] | Kon [5] [M⁻¹ s⁻¹] | further results
1 | VEGF-Trap: VEGF-Trap, comparison agent given intravitreally, 5 μg [reference compound] | – | – | – | – | – | vascular leakage suppression compared with Fc ([1]; FA/ICGA, 14 days after laser photocoagulation): 37.0%; CNV regression compared with Fc (CD31+ CNV volume) ([1]; measured 14 days after laser photocoagulation): 64.4%; vascular leakage reduction between 6 and 14 days after laser photocoagulation ([1]; within-group): 45.6%; CNV volume in outer retinas (OCTA) ([2]; 5 μg intravitreal at 7 days after laser photocoagulation): markedly reduced CNV volume; increased avascular space ([2]; D14): 11.4%; increased avascular space ([2]; D21): 16.0%; increased avascular space ([2]; D35): 18.1%
2 | B1 | 8.94e-06 | 73700 | – | – | – | –
3 | B2 | 1.56e-05 | 93900 | – | – | – | –
4 | B3 | – | – | strongly induced | 1.71e-05 | 124000 | –
5 | B4 | – | – | strongly induced | 0.000134 | 28300 | –
